Measurements published in publication PMC8910563, “BdGUCD1 and Cyclic GMP Are Required for Responses of Brachypodium distachyon to Fusarium pseudograminearum in the Mechanism Involving Jasmonate” (International Journal of Molecular Sciences, 2022).

Substrate: Nc1ncnc2c1ncn2[C@@H]1O[C@H](COP(=O)(O)OP(=O)(O)OP(=O)(O)O)[C@@H](O)[C@H]1O
Assay: adenylyl cyclase assay, cAMP by LC-MS/MS
Format: biochemical, Brachypodium distachyon

B1: BdGUCD1 (Brachypodium distachyon) (protein)
chain: MVLRTLGVDCCDGIADLGKLCHTTSIWTVDLAYLLHKFRVSFSFFTVTIGANPQYSAETFYREQLQEDIDRVDELFGKAVDAGISIQCRSISAYDIAFLLLSGHCIAIALVDKSKLISSWMNDVHDVQQFNEDSDYMGHYVVICGYDADACEFEIRDPASSRKREMVPMKSLEEARKSFGTDEDILLVSLTGKNGMKLSRKLPDSSL
notes: truncated fragment Met62-Leu268 (207 residues; full length 268 aa), N-terminal GST fusion kept (pGEX-6P-2), ~55 kDa, from E. coli BL21(DE3)pLysS
Protein B1 has a Km of 320 µM.
